What all share (conditions): both partners purified
One experiment addresses T1, YU2 gp140-foldon trimer (HIV-1 isolate YU2 (clade B), UniProt P35961, stabilised).
T1 construct: also called eliciting gp140-F immunogen; gp140 trimers; source: 293 F cells; not shown: His tag, C-terminal, kept
Kind of experiment: ELISA; Env glycoprotein coated at 2 ug/ml in PBS pH 7.4 overnight at 4 C; IgG 5-fold serially diluted, 1 hour at RT; HRP goat anti-human IgG (H+L).

In experiment [1] the target is T2, YU2 gp120, soluble monomer (HIV-1 isolate YU2 (clade B), UniProt P35961). The experiment is described as above.
A further experiment deals with T3, JRFL gp140-F trimer (HIV-1 isolate JRFL (clade B), UniProt Q75760, stabilised).
T3 construct: also called JRFL foldon trimers; source: 293 F cells
The description is as above.

Experiment [2] addresses T2, YU2 gp120, soluble monomer. Kind of experiment: BLI.

B1: GEBT383, mature IgG (antibody, V domains shown)
VH: QVQLQESGPAVVKPSETLSLTCAVSGGSISSSNWWSWIRQSPGKGLEWIGGVYGSSGSTEYNPSLKSRVTISIDTSKNQFSLKLSSVTAADTAVYYCVRHCTWYNNIWNGYYNGFDYWGQGVLVTVSS
VL: QSALTQPPSVSGAPGQRVTISCTGSSSNIGGYYVSWYQQLPGTVPKLLIYENKKRPSGVSDRFSGSKSGTSASLTITGLQPGDEADYYCSAWDNSLSSHVFGSGTKLTVL
notes: also called non-CD4bs-directed mAb
For the molecule B1, the binding result in the experiment with YU2 gp140-foldon trimer was “binds”.

B2: GEBT414, mature IgG (antibody, V domains shown)
VH: EVQLVQSGAEVKRPGESLRISCKTSGYSFTGSWISWVRQMPGKGLDWMGNIYPGDSDTRYNPSFQGHVTISADKSISTTYLQWSSLKASDTATYYCAKGGGITIFGLLHYPLDSWGQGVVVTVSS
VL: DIQMTQSPSSLSASVGDTVTITCRASQGINNWLAWYQQKPGKAPKLLIYKASSLQSGVPSRFSGSGSGTDFTLTISSLQSEDFATYYCQQYNSGPLTFGGGTKVEIK
Regarding B2, the binding result (in experiment [1]; with JRFL gp140-F trimer; in the experiment with YU2 gp140-foldon trimer) was “binds” in each case.

B3: GEBT404, mature IgG (antibody, V domains shown)
VH: EVQLVESGGGLAKPGGSLRLSCAASGFTFSNYWMYWVRQAPGKGLEWISAINSAGSRTYYPDSVKGRFTISRENAKNTLYLQMDSLRAEDTAVYYCAKGRIAIFGLVITYFDYWGQGVLVTVSS
VL: DIQMTQSPSSLSASVGDRVTITCRASQGITNDLAWYQQKPGETPKLLIYDASSLQSGIPSRFSGSGSGTDFTLTISSLQPEDFATYYCQHYYSTPPTFGGGTKVEIK
For the molecule B3, the binding result (in experiment [1]; in the experiment with JRFL gp140-F trimer; with YU2 gp140-foldon trimer) was “binds” throughout.

B4: GEBT404, inferred germline (igL) reverted IgG (antibody, V domains shown)
VH: EVQLVESGGGLAKPGGSLRLSCAASGFTFSNYWMHWVRQAPGKGLEWISAINSAGSSTYYADSVKGRFTISRENAKNTLYLQMDGLRAEDTAVYYCAKGRIAIFGLVITYFDYWGQGVLVTVSS
VL: DIQMTQSPSSLSASVGDRVTITCQASQGITNDLAWYQQKPGETPKLLIYEASSLQSGIPSRFSGSGSGTDFTLTISSLQSEDFATYYCQHYYSTPPTFGGGTKVEIK
notes: also called igL GEBT404; gL-reverted GEBT404
For the molecule B4, the binding result with JRFL gp140-F trimer is reported as “binds”.

B5: GEBT391, mature IgG (antibody, V domains shown)
VH: QVQLVESGGGLVQPGGSLRLSCAASGFTFSSYGMHWVRQAPGKGLEWVAVIWFDGSEKYYVDSVKDRFTISRDNSKNMLYLQMNNLKLDDTAVYYCARRGCTGSGCYLYYYALDSWGQGVVVTVSS
VL: DIQMTQSPSSLSASVGDTVTITCRASQGISSYLNWFQQKPGKAPKLLIYAATTLQSGVPSRFSGSGSGTDFTLTISSLQPEDFATYYCLQHNFYPYSFGQGTKVEIK
As to B5, the binding result (in experiment [1]; with JRFL gp140-F trimer; in the experiment with YU2 gp140-foldon trimer) was “binds” each time.

B6: GEBT391, inferred germline (igL) reverted IgG (antibody, V domains shown)
VH: EVQLVESGGGLVQPGGSLRLSCAASGFTFSSYGMHWVRQAPGKGLEWVAVIWYDGSKKYYADSVKDRFTISRDNSKNMLYLQMNNLKLEDTAVYYCARRGCTGSGCYLYYYALDSWGQGVVVTVSS
VL: DIQMTQSPSSLSASVGDTVTITCRASQGISSYLNWFQQKPGKAPKLLIYAASSLESGVPSRFSGSGSGTEFTLTISSLQPEDFATYYCLQHNFYPYSFGQGTKVEIK
notes: also called igL GEBT391; gL-reverted GEBT391
For B6, the binding result (in the experiment with JRFL gp140-F trimer; with YU2 gp140-foldon trimer; in experiment [2]) was “binds” in each case.

B7: GEBT412, inferred germline (igL) reverted IgG (antibody, V domains shown)
VH: QVQLVESGGGLVQPGGSLRLSCAASGFTFSSYGMHWVRQAPGKGLEWVAVIWYDGSKKYYADSVKDRFTISRDNSKNMLYLQMNNLKLEDTAVYYCARRGCTGSGCYLYYYGLDSWGQGVVVTVSS
VL: DIQMTQSPSSLSASVGDTVTITCRASQGISSYLNWFQQKPGKAPKLLIYAASSLESGVPSRFSGSGSGTEFTLTISSLQPEDFATYYCLQHNFYPYSFGQGTKVEIK
notes: also called igL GEBT412
Consider B7, for which the binding result (with JRFL gp140-F trimer; in experiment [2]) was “binds” throughout.

B8: GEBT412, mature IgG (antibody, V domains shown)
VH: QVQLVESGGGLVQPGGSLRLACAASGFIFSNHGMHWVRQAPGKGLEWVAVIWYDGSEKYYADSVKDRFTISRDNSKNMLYLQMNNLKLVDTAVYYCARRGCTGSGCYLYYYGLDSWGQGVVVTVSS
VL: DIQMTQSPSSLSASVGDTVTITCRASQGISSHLNWFQQKPGKAPKLLIYAATTLQSGVPSRFSGSGSGTDFTLTISSLQPEDFATYYCLQHNFYPYSFGQGTKVEIK
B8: the binding result (in experiment [1]; with JRFL gp140-F trimer; in the experiment with YU2 gp140-foldon trimer) was “binds” in each case.

B9: GEBT403, mature IgG (antibody, V domains shown)
VH: EVQLVQSGAEVKKPGSSVKVSCKASGYTFTDYYMHWVRQAPGQGLEWMGEINPKTGGTNYAQKFQGRVTMTRDTSTSTAYMELSSLRSEDTAIYSCARGGQRLIPLRRFYFYYWGQGVLVTVSS
VL: QSVLTQPPSVSGAPGQKVTISCTGSSSNIGGYDVHWYQQLPGMAPKLLIYDNNERPSGISDRFSGSKSGTSASLAITGLQTEDEADYYCQSYDSSMNAWVFGGGTRLTVL
notes: also called mature GEBT403
In the case of B9, the binding result (in experiment [1]; in the experiment with JRFL gp140-F trimer; in the experiment with YU2 gp140-foldon trimer) was “binds” in each case.
